# Where “and” joins values, the source holds several entries; their conditions need not be identical. Identical values can stand only once. ± gives the standard deviation of the averaged measurements.
# Key:
# Saccharomyces cerevisiae [1] = assay: protein stability index of tFT-peptide fusion in wild type (PSI (0-1 scale)); higher = more stable (slower turnover); conditions: genetic background: wild type
# Method: (§1)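 MPS profiling in S. cerevisiae of two library types built from selected 12-aa C-degron peptides (IN1, IN2, LN1, LN3, VN2, R1-R5, W1-W3, Atg1 and Rpa12 C-termini): saturation mutagenesis libraries and C-terminal +1 capping libraries (13 aa). Each peptide is fused to the C-terminus of a sfGFP-mCherry timer, after a GGGS linker. Cells are FACS-sorted into 8 mCherry/sfGFP bins and sequenced. PSI runs from 0 (unstable) to 1 (stable), measured once in wild type and in the das1Δ or doa10Δ background.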
# Saccharomyces cerevisiae [2] = assay: protein stability index of tFT-peptide fusion in deletion strain of DOA10 (PSI (0-1 scale)); higher = more stable (slower turnover)
# Method: as §1
# Saccharomyces cerevisiae [3] = assay: protein stability index of tFT-peptide fusion (C-terminal peptide) (PSI (0-1 scale)); higher = more stable (slower turnover)
# Method: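 MPS profiling in S. cerevisiae of the tFT-X12 degron library: putative degron peptides plus stable controls, 12 aa, fused to the C-terminus of a sfGFP-mCherry timer. Cells are FACS-sorted into 8 mCherry/sfGFP bins and deep-sequenced. PSI runs from 0 (unstable) to 1 (stable). Backgrounds are wild type, das1Δ and doa10Δ at 30 °C, and wild type, das1Δ, cdc34-1 and cdc53-1 at 37 °C; 2-3 technical replicates each.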
# Saccharomyces cerevisiae [4] = assay: as above; conditions: genetic background: wild type; temperature: 30 C
# Saccharomyces cerevisiae [5] = assay: protein stability index of tFT-peptide fusion in deletion strain of DAS1 (PSI (0-1 scale)); higher = more stable (slower turnover)
# Method: as §1
# 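Throughout, for protein stability index of tFT-peptide fusion (C-terminal peptide): PSI is a weighted mean of sequencing reads over stability bins, variants kept only with over 10 reads, mCherry proximal and sfGFP distal, peptide attached via GGGS linker.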
# 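Throughout, for protein stability index of tFT-peptide fusion in deletion strain of DAS1: PSI is a weighted mean of each variant's read distribution over the sorted stability bins, computed only for variants having over 10 reads in total.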
# 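Throughout, for protein stability index of tFT-peptide fusion in deletion strain of DOA10: PSI per variant is the weighted mean of its sequencing read distribution over the sorted stability bins, counting only variants with over 10 reads summed across bins.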
# 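Throughout, for protein stability index of tFT-peptide fusion in wild type: PSI derived as read-weighted mean over the 8 sorting bins, only variants exceeding 10 total reads kept, mCherry placed adjacent to the peptide and sfGFP distal.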
Sequence,protein stability index (Saccharomyces cerevisiae [1]),protein stability index (Saccharomyces cerevisiae [5]),other results
AIFLPMCPLLLR,0.278,,protein stability index (Saccharomyces cerevisiae [2]): 0.631
AIHLPMCPLLLR,0.278,,protein stability index (Saccharomyces cerevisiae [2]): 0.65
AITGPMCPLLLR,0.497,,protein stability index (Saccharomyces cerevisiae [2]): 0.666
AITKPMCPLLLR,0.458,,protein stability index (Saccharomyces cerevisiae [2]): 0.651
AITLGMCPLLLR,0.373,,protein stability index (Saccharomyces cerevisiae [2]): 0.661
AITLNMCPLLLR,0.261,,protein stability index (Saccharomyces cerevisiae [2]): 0.662
AITLPMCPLFLR,0.184,,protein stability index (Saccharomyces cerevisiae [2]): 0.67
AITLPMCPLLER,0.648,,protein stability index (Saccharomyces cerevisiae [2]): 0.741
AITLPMCPLLLH,0.502,,protein stability index (Saccharomyces cerevisiae [2]): 0.621
AITLPMCPLLLN,0.135,,protein stability index (Saccharomyces cerevisiae [2]): 0.189
AITLPMCPLLLRN,0.281,,protein stability index (Saccharomyces cerevisiae [2]): 0.659
AITLPMCPYLLR,0.545,,protein stability index (Saccharomyces cerevisiae [2]): 0.675
AITLPMCVLLLR,0.0936,,protein stability index (Saccharomyces cerevisiae [2]): 0.608
AITLPMCWLLLR,0.0817,,protein stability index (Saccharomyces cerevisiae [2]): 0.736
AITLPQCPLLLR,0.293,,protein stability index (Saccharomyces cerevisiae [2]): 0.661
AITLPTCPLLLR,0.289,,protein stability index (Saccharomyces cerevisiae [2]): 0.681
AITLPYCPLLLR,0.18,,protein stability index (Saccharomyces cerevisiae [2]): 0.666
KKHKKGQKQKIN,0.113 and 0.11,0.66 and 0.611,"protein stability index (Saccharomyces cerevisiae [3]; genetic background: cdc34-1, temperature: 37 C): 0.535 ± 0.036; protein stability index (Saccharomyces cerevisiae [3]; genetic background: cdc53-1, temperature: 37 C): 0.694 ± 0.011; protein stability index (Saccharomyces cerevisiae [3]; genetic background: das1 deletion, temperature: 30 C): 0.622 ± 0.04; protein stability index (Saccharomyces cerevisiae [3]; genetic background: das1 deletion, temperature: 37 C): 0.725 ± 0.021; protein stability index (Saccharomyces cerevisiae [3]; genetic background: doa10 deletion, temperature: 30 C): 0.0638 ± 0.032; protein stability index (Saccharomyces cerevisiae [3]; genetic background: wild type, temperature: 30 C): 0.0729 ± 0.029; protein stability index (Saccharomyces cerevisiae [3]; genetic background: wild type, temperature: 37 C): 0.149 ± 0.11; protein stability index (Saccharomyces cerevisiae [4]): 0.175 ± 0.039"
PDKRNHLIGLLN,0.612,0.609,
PDKRNHLIILLN,0.107,0.66,
PDKRNHLIKLLNL,0.298,0.665,
PDKRNHLIKTLN,0.164,0.604,

Sequence,protein stability index (Saccharomyces cerevisiae [1]),protein stability index (Saccharomyces cerevisiae [5]),other results
PDKRNHLIVLLN,0.148,0.637,
PDKRNHLNKLLN,0.126,0.579,
PDKRNHLRKLLN,0.205,0.574,
PDKRNHRIKLLN,0.159,0.661,
PDKRNQLIKLLN,0.0747,0.633,
PDKRYHLIKLLN,0.0495,0.597,
PDVRNHLIKLLN,0.119,0.613,
PPKRNHLIKLLN,0.116,0.581,
PSLAAAFWRVVG,0.142,0.702,
PSLAADFWRVVG,0.171,0.712,
PSLAAGFWRVVG,0.164,0.678,
PSLAALFWRVVG,0.129,0.674,
PSLAASCWRVVG,0.143,0.675,
PSLAASFWRGVG,0.232,0.707,
PSLAASFWRRVG,0.128,0.69,
PSLAASFWRVDG,0.68,0.7,
PSLAASFWRVNG,0.167,0.702,
PSLAASFWRVVGF,0.692,0.693,
PSLAASFWRVVGQ,0.649,0.705,
PSLAASFWRVVGR,0.692,0.691,
PSLAASFWRVVW,0.637,0.683,
PSLAASGWRVVG,0.193,0.679,

Sequence,protein stability index (Saccharomyces cerevisiae [1]),protein stability index (Saccharomyces cerevisiae [5]),other results
PSLAASMWRVVG,0.147,0.73,
PSLAASTWRVVG,0.132,0.68,
PSLAGSFWRVVG,0.152,0.667,
PSLAHSFWRVVG,0.167,0.669,
PSLAISFWRVVG,0.127,0.633,
PSMRWTFRYWVN,0.0877,0.571,
QDKRNHLIKLLN,0.0816,0.592,
QSLAASFWRVVG,0.13,0.698,
RAIQPLPVQFLN,0.121,0.674,
RIIQPLPVQFLN,0.0603,0.598,
RLIEPLPVQFLN,0.076,0.578,
RLIPPLPVQFLN,0.0667,0.576,
RLIQPLLVQFLN,0.0592,0.575,
RLIQPLPAQFLN,0.0736,0.602,
RLIQPLPHQFLN,0.0684,0.645,
RLIQPLPNQFLN,0.21,0.703,
RLIQPLPPQFLN,0.132,0.521,
RLIQPLPVAFLN,0.0928,0.552,
RLIQPLPVQFLND,0.652,0.671,
RLIQPLPVQFLNK,0.647,0.676,
RLIQPLPVQFLNM,0.584,0.655,
RLIQPLPVQFLR,0.668,0.58,

Sequence,protein stability index (Saccharomyces cerevisiae [1]),protein stability index (Saccharomyces cerevisiae [5]),other results
RLIQPLPVQFLS,0.156,0.606,
RLIQPLPVQHLN,0.1,0.564,
RLIQPLPWQFLN,0.0707,0.699,
RLIQPRPVQFLN,0.0515,0.613,
RLIQWLPVQFLN,0.071,0.613,
RLIWPLPVQFLN,0.0399,0.57,
RRGAVGGWRLVG,0.16,0.687,
RTIQPLPVQFLN,0.101,0.629,
SDKRNHLIKLLN,0.156,0.607,
SRGAVGGWRLVG,0.171,0.677,
SRWRVGLWRGAS,0.458,0.672,
SSLAASFWRVVG,0.16,0.692,
TSMRWTFRYWVN,0.0899,0.696,
VRGAKGGWRLVG,0.28,0.67,
VRGANGGWRLVG,0.212,0.677,
VRGAQGGWRLVG,0.191,0.701,
VRGAVAGWRLVG,0.156,0.655,
VRGAVGGMRLVG,0.592,0.677,
VRGAVGGWRCVG,0.222,0.658,
VRGAVGGWRFVG,0.142,0.674,
VRGAVGGWRHVG,0.137,0.691,
VRGAVGGWRLFG,0.333,0.694,

Sequence,protein stability index (Saccharomyces cerevisiae [1]),protein stability index (Saccharomyces cerevisiae [5]),other results
VRGAVGGWRLTG,0.269,0.659,
VRGAVGGWRLVGM,0.621,0.685,
VRGAVGGWRLVGQ,0.701,0.667,
VRGAVGGWRLVGS,0.174,0.67,
VRGAVGGWRLVW,0.714,0.671,
VRGAVGGWRNVG,0.364,0.676,
VRGAVGGYRLVG,0.658,0.681,
VRGAVGIWRLVG,0.156,0.681,
VRGAVMGWRLVG,0.154,0.71,
VRGAVPGWRLVG,0.149,0.678,
VRGAVTGWRLVG,0.157,0.684,
VRGHVGGWRLVG,0.131,0.672,
VRWAVGGWRLVG,0.0824,0.685,
VSLAASFWRVVG,0.102,0.676,
VYGAVGGWRLVG,0.137,0.677,
WTSCGYKFRTNN,0.173,0.699,
YKILRQKMNHQN,0.196,0.668,
YVVYLSCVACIN,0.0134,0.0254,

# Reference: the supplement of paper PMC10724198
